Measured values published in publication PMC3741069 (Biochemistry, 2013).

Substrate: O=[N+]([O-])O
Assay: steady-state nitrate reductase assay, Michaelis-Menten fit
Type: biochemical, Synechococcus elongatus
Conditions: saturating reduced ferredoxin (Synechocystis sp. PCC 6803) as electron donor

B1: nitrate reductase (NarB) (Synechococcus elongatus PCC 7942 = FACHB-805; R160Q) (protein)
chain: MIDTAKTLCPYCGVGCGLEAVPPAQPGRATVRDREGTPIWQIRGDRQHPSSQGMVCVKGATVAESVSKSRLKYPMFRASLDDPFTEISWDEALDRLCDRIQQTQADYGKDGICFYGSGQFQTEDYYIAQKLVKGCLGTNNFDTNSQLCMSSAVSAYSLCLGSDGPPACYEDLDLADCLLIVGSNTAECHPILFNRYRKRHKQGGTNLIVVDPRCTPTAEVADLHLALKPGSDVALLNGLGWLLYQMGYVKKDFIANQTEGFEDWLAIIEDYPPQRTAELTGLAVAELVRAADLIASAQRWLSLWSMGVNQSIQGTAKATSLINLHLLTRQIGLPGCGPFSLTGQPNAMGGRETGGLAHLLPGYRKVIDPQHRADVETIWGLPMGSISPQPGRTAWQMIEGLEQGAVGFLWVAATNPAVSLPDVKRAQAALKRSPFTVLQDAYHPTETTTYAHLLLPAAQWSEKTGTMTNSERRVTLCQAFRQPPGEARADWQIFAEVGRRLGFAFDYTDAAAVFAEYVQVTAGRLCDLSGLSHELLAQAGPQQWPFPAGAEPTTESKRLYTKHHFAYADGRARFQPFHHLGVAEPPDDRYPLVLTVGRLYGHWHTQTRTGRIDKINKLHPSAFVEIHPRDADRYNISEGQAVVIRSRRGEGCFPAKVTTAISPGVLFVPMHWGALWGDRTEANALTHPAACPISGEPELKACAVQIEAASSTFTI
Work on B1 yielded a Km of 2.5 ± 0.3 µM.

B2: nitrate reductase (NarB) (Synechococcus elongatus PCC 7942 = FACHB-805) (protein)
chain: MIDTAKTLCPYCGVGCGLEAVPPAQPGRATVRDREGTPIWQIRGDRQHPSSQGMVCVKGATVAESVSKSRLKYPMFRASLDDPFTEISWDEALDRLCDRIQQTQADYGKDGICFYGSGQFQTEDYYIAQKLVKGCLGTNNFDTNSRLCMSSAVSAYSLCLGSDGPPACYEDLDLADCLLIVGSNTAECHPILFNRYRKRHKQGGTNLIVVDPRCTPTAEVADLHLALKPGSDVALLNGLGWLLYQMGYVKKDFIANQTEGFEDWLAIIEDYPPQRTAELTGLAVAELVRAADLIASAQRWLSLWSMGVNQSIQGTAKATSLINLHLLTRQIGLPGCGPFSLTGQPNAMGGRETGGLAHLLPGYRKVIDPQHRADVETIWGLPMGSISPQPGRTAWQMIEGLEQGAVGFLWVAATNPAVSLPDVKRAQAALKRSPFTVLQDAYHPTETTTYAHLLLPAAQWSEKTGTMTNSERRVTLCQAFRQPPGEARADWQIFAEVGRRLGFAFDYTDAAAVFAEYVQVTAGRLCDLSGLSHELLAQAGPQQWPFPAGAEPTTESKRLYTKHHFAYADGRARFQPFHHLGVAEPPDDRYPLVLTVGRLYGHWHTQTRTGRIDKINKLHPSAFVEIHPRDADRYNISEGQAVVIRSRRGEGCFPAKVTTAISPGVLFVPMHWGALWGDRTEANALTHPAACPISGEPELKACAVQIEAASSTFTI
In the case of B2, the Km is reported as 6.0 ± 1.0 µM.

B3: nitrate reductase (NarB) (Synechococcus elongatus PCC 7942 = FACHB-805; K144Q) (protein)
chain: MIDTAKTLCPYCGVGCGLEAVPPAQPGRATVRDREGTPIWQIRGDRQHPSSQGMVCVKGATVAESVSKSRLKYPMFRASLDDPFTEISWDEALDRLCDRIQQTQADYGKDGICFYGSGQFQTEDYYIAQQLVKGCLGTNNFDTNSRLCMSSAVSAYSLCLGSDGPPACYEDLDLADCLLIVGSNTAECHPILFNRYRKRHKQGGTNLIVVDPRCTPTAEVADLHLALKPGSDVALLNGLGWLLYQMGYVKKDFIANQTEGFEDWLAIIEDYPPQRTAELTGLAVAELVRAADLIASAQRWLSLWSMGVNQSIQGTAKATSLINLHLLTRQIGLPGCGPFSLTGQPNAMGGRETGGLAHLLPGYRKVIDPQHRADVETIWGLPMGSISPQPGRTAWQMIEGLEQGAVGFLWVAATNPAVSLPDVKRAQAALKRSPFTVLQDAYHPTETTTYAHLLLPAAQWSEKTGTMTNSERRVTLCQAFRQPPGEARADWQIFAEVGRRLGFAFDYTDAAAVFAEYVQVTAGRLCDLSGLSHELLAQAGPQQWPFPAGAEPTTESKRLYTKHHFAYADGRARFQPFHHLGVAEPPDDRYPLVLTVGRLYGHWHTQTRTGRIDKINKLHPSAFVEIHPRDADRYNISEGQAVVIRSRRGEGCFPAKVTTAISPGVLFVPMHWGALWGDRTEANALTHPAACPISGEPELKACAVQIEAASSTFTI
With B3 the Km was 3.3 ± 0.5 µM.

B4: nitrate reductase (NarB) (Synechococcus elongatus PCC 7942 = FACHB-805; K144R) (protein)
chain: MIDTAKTLCPYCGVGCGLEAVPPAQPGRATVRDREGTPIWQIRGDRQHPSSQGMVCVKGATVAESVSKSRLKYPMFRASLDDPFTEISWDEALDRLCDRIQQTQADYGKDGICFYGSGQFQTEDYYIAQRLVKGCLGTNNFDTNSRLCMSSAVSAYSLCLGSDGPPACYEDLDLADCLLIVGSNTAECHPILFNRYRKRHKQGGTNLIVVDPRCTPTAEVADLHLALKPGSDVALLNGLGWLLYQMGYVKKDFIANQTEGFEDWLAIIEDYPPQRTAELTGLAVAELVRAADLIASAQRWLSLWSMGVNQSIQGTAKATSLINLHLLTRQIGLPGCGPFSLTGQPNAMGGRETGGLAHLLPGYRKVIDPQHRADVETIWGLPMGSISPQPGRTAWQMIEGLEQGAVGFLWVAATNPAVSLPDVKRAQAALKRSPFTVLQDAYHPTETTTYAHLLLPAAQWSEKTGTMTNSERRVTLCQAFRQPPGEARADWQIFAEVGRRLGFAFDYTDAAAVFAEYVQVTAGRLCDLSGLSHELLAQAGPQQWPFPAGAEPTTESKRLYTKHHFAYADGRARFQPFHHLGVAEPPDDRYPLVLTVGRLYGHWHTQTRTGRIDKINKLHPSAFVEIHPRDADRYNISEGQAVVIRSRRGEGCFPAKVTTAISPGVLFVPMHWGALWGDRTEANALTHPAACPISGEPELKACAVQIEAASSTFTI
Work on B4 yielded a Km of 5.7 ± 2.5 µM.
